Reference: patent publication US20230374161A1 (Stanford University, published 2023)

Biological target: human NKG2A (human, UniProt P26715 94-233, limits assumed)
Experiment: not stated; drawn table 'Binding affinity of anti-NKG2A scFv to human NKG2A', column 'Binding affinity, KD (M)'

Sequence of human NKG2A (P26715 94-233 limits assumed): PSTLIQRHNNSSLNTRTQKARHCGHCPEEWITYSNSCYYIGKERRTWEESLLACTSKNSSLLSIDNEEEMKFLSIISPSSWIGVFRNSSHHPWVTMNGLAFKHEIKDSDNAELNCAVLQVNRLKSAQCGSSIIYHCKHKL

B1: murine anti-NKG2A scFv (scFv)
scFv: QVQLQQPGAELVRPGASVKLSCKASGYTFTSYWMNWVKQRPEQGLQWIGRIDPYDSETHYSQKFKDKAILTVDKSSSTAYMRLSSLTSEDSAVYYCARGGYDFDVGTLYWFFDVWGAGTTVTVSSGGSTRSSSSGGGGSGGGGDIQMTQSPASLSASVGETVTITCRASENIYSYLAWYQQKQGKSPQFLVYNAKTLAEGVPSRFSGSGSGTQFSLKINSLQPEDFGSYYCQHHYGTPRTFGGGTKLEIKAAAHHHHHHHH
notes: Derived from the VH and VL of murine antibody Z270 (U.S. Pat. No. 9,683,041), expressed in Hi5 cells, purified on Ni-NTA; also called αNKG2A-scFv
- Kd: 0.0665 nM
